Biological target: T1, Calnexin (Cnx) on the surface of human cells (MDA-MB-231 ER-G2, Huh7, KP4) (human), P27824
T1 chain: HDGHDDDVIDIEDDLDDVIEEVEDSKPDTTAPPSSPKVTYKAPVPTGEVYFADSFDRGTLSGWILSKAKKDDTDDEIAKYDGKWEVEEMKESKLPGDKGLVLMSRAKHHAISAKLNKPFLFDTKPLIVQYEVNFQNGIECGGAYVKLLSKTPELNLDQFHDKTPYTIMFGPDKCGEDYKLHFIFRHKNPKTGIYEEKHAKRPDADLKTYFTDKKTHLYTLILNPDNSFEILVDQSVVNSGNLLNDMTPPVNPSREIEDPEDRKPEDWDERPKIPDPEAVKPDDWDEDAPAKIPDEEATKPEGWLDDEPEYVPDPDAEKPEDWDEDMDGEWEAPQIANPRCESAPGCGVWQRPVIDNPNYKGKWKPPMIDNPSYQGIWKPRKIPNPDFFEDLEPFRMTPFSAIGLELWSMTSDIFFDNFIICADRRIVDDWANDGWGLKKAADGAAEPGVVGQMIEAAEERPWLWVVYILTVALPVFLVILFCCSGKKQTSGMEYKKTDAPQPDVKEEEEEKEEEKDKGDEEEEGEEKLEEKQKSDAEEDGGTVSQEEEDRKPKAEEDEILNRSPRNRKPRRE
Test: proximity ligation assay on live, intact cells, probes for Cnx and ERp57
Conditions: remark: other sources report otherwise

proximity ligation assay signal, fold increase in MDA ER-G2 against wild-type MDA cells: 10 fold
B1: ERp57 (PDIA3) on the surface of human MDA-MB-231 ER-G2 cells, P30101 25-505 (enzyme, UniProt P30101 25-505, looked up)
chain: SDVLELTDDNFESRISDTGSAGLMLVEFFAPWCGHCKRLAPEYEAAATRLKGIVPLAKVDCTANTNTCNKYGVSGYPTLKIFRDGEEAGAYDGPRTADGIVSHLKKQAGPASVPLRTEEEFKKFISDKDASIVGFFDDSFSEAHSEFLKAASNLRDNYRFAHTNVESLVNEYDDNGEGIILFRPSHLTNKFEDKTVAYTEQKMTSGKIKKFIQENIFGICPHMTEDNKDLIQGKDLLIAYYDVDYEKNAKGSNYWRNRVMMVAKKFLDAGHKLNFAVASRKTFSHELSDFGLESTAGEIPVVAIRTAKGEKFVMQEEFSRDGKALERFLQDYFDGNLKRYLKSEPIPESNDGPVKVVVAENFDEIVNNENKDVLIEFYAPWCGHCKNLEPKYKELGEKLSKDPNIVIAKMDATANDVPSPYEVRGFPTIYFSPANKKLNPKKYEGGRELSDFISYLQREATNPPVIQEEKPKKKKKAQEDL
modifications: here or on the partner: O-GalNAc (Tn) glycosylation at T50, T59, T66, T79, S81 and S86 after GALA activation
